Experimental data reported in the supplement of paper PMC9170038.

System: MS2 coat protein
Assay: apparent KD of MS2 coat protein; designed switch direction (-1 OFF switch, 1 ON switch): -1; higher = weaker reporter binding
Outline: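 On Illumina chips, designed RNA switches with common flanks were made by stalled E. coli RNA polymerase. Titrations with SNAP-549-labelled MS2 coat protein, doubling from 0.7 or 1.5 nM to 3 µM, were done with no input, with 200 uM small-molecule ligand, or with an oligonucleotide input. Apparent KD is the median per design over clusters, from curve fits of normalised cluster fluorescence.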

[1] = Eterna round: R95, input ligand: FMN 200 uM
[2] = Eterna round: R95, input ligand: microRNA oligo, concentration not stated
[3] = Eterna round: R95, input ligand: none
[4] = input ligand: microRNA oligo, concentration not stated

| Sequence | apparent KD of MS2 coat protein [1] | apparent KD of MS2 coat protein [2] | apparent KD of MS2 coat protein [3] | apparent KD of MS2 coat protein (input ligand: FMN 200 uM) | apparent KD of MS2 coat protein (input ligand: none) | apparent KD of MS2 coat protein [4] |
| --- | --- | --- | --- | --- | --- | --- |
| UUUAAUUUUUUUUUUUUACAAGCUUUUUGCUCGUCUUAUACAUGAGGAUCACCCAUGUAAAUGGGAAAUGAAUUAUC [JMF 95] (puzzle: Sensor v3, turn-off variant 2) | 322 nM | 447 nM | 188 nM |  |  |  |
| UCCUCACCUUAGGAUAUCUUGACGGGACUCUCAGGAGAAGGAAGGACAUGAGGAUCACCCAUGUUCAAAACAAC [EX6 B.18] (Eterna round: R97, puzzle: Exclusion 6) |  |  |  | 50.2 nM | 23.2 nM |  |
| AGCUAGUCAGGAUAUACGAAAAUGUCAGAAGCUGAGAAGGGACAUGAGGAUCACCCAUGUAGAAGGGACUAGCA [Diamond 37] (Eterna round: R96, puzzle: Exclusion 2) |  |  |  |  |  | 48.7 nM |
| GGUUGGCGAGGAUAUACAUGAGGAUCACCCAUGUGAGAGAUACUAGUGAGGUCGAUUGGUAGAAGGCGCUGACA [Mat - Exclusion 3 - Mod of JL D78] (puzzle: Exclusion 3) |  | 114 nM |  |  |  |  |
| UGAUCUAGCGGAGGAUAUACAUGAGGAUCACCCAUGUAGACUCCAUGACCGUAGUCGUGGAGCGUGUAGAAGGCCGCUAGAUCU [JL ENG2 3.72] (Eterna round: R96, puzzle: Exclusion NG 2) |  |  |  | 19.2 nM | 12.2 nM | 10.3 nM |
| ACGAAAGCAAGCAAGUGAAACAUGAGGAUCACCCAUGUCCUCAUUUGCUCGUCUUAUAAAAGCUAUCGAAAGAUAGC [Mat - Sensor v3 - turn-off var 1 - Eli Mod - D47] (puzzle: Sensor v3, turn-off variant 1) | 11.9 nM | 157 nM | 13.2 nM |  |  |  |
| GCAUCUCGCAAGGGUACCCACAUGAGGAUCACCCAUGUGAUGAUAAACAGGUUUCGUGCGUCCGUUUUAUCCACUUU [Eternabot (L2) Solution 18] (Eterna round: R97, puzzle: Sensor, turn-off variant 1) |  |  |  | 737 nM | 865 nM |  |
| UAGAAGGUAGGAUAUACGAAUAAAUAGGGUAGAAUAAUAACACAUGAGGAUCACCCAUGUAGAAGGACCAAGAU [Mat - Exclusion 2 - Mod of my Tesla design - D30] (puzzle: Exclusion 2) | 42.9 nM | 20.7 nM | 20.7 nM |  |  |  |
| GCGCACCUACCAAAAGGUAGGCUAACAUGAGGAUCACCCAUGUAGGAUAUCGAUUGCUUUGCAGUCGAGAAGGACGUGAUGCGC [JL ENG3 3.80 Mod 19] (Eterna round: R96, puzzle: Exclusion NG 3) |  |  |  | 25.9 nM | 23.3 nM | 17.2 nM |
| AAGCCCUGAGGAUAUCCCAACUCGCACAUGAGGAUCACCCAUGUCCUUCUCUGGGUUUCGGGAGAAGGCAGGCCUC [Megrez-8.3] (Eterna round: R97, puzzle: Exclusion 5) |  |  |  | 398 nM | 911 nM |  |
| CCAAAUCAUGUAGGAUAUGCGUGGCGAAGCUAUGCAGAAGGACAUGAGGAUCACCCAUGUGCUUCCGUCUGCGUACAGACGGUA [JL ENG1 1.15] (Eterna round: R96, puzzle: Exclusion NG 1) |  |  |  | 123 nM | 118 nM | 103 nM |
| GGUGCGUUUGUGAGGAUAUGCUGGUCCUUGGUUCUGCAGAAGGCACAUGAGGAUCACCCAUGUGGUGUCGUACC [salish99_Bmod_Ex4_042] (puzzle: Brourd's mod of Exclusion 4) |  | 64.5 nM |  |  |  |  |
| AAUCCUGAAGUUAGGAUAUGAAGUAUCACUACACUUCAGAAGGAACUUGAGGAUCACCCAAGUAGCCGUGAGGC [jl-bmx4.4.63 ViennaUCT mod] (Eterna round: R97, puzzle: Brourd's mod of Exclusion 4) |  |  |  | 96 nM | 20.3 nM |  |
| CCAAAUUCAGGAUAUACGAUGGUGAGUUCGUCCUCAAGGCCACAUGAGGAUCACCCAUGUAGAAGGGAGGUCGG [Eternabot (L1) Solution 77] (Eterna round: R97, puzzle: Exclusion 2) |  |  |  | 130 nM | 35.6 nM |  |
| GCAGAAAGUGUAGGAUAUAUAAUAAAGCGGAAACGCAAGACAUGAGGAUCACCCAUGUGUCCGGAAUAGAAGGGCAAAAGCUGC [EXNG2 V2 b] (Eterna round: R96, puzzle: Exclusion NG 2) |  |  |  | 29.1 nM | 29.4 nM | 19.9 nM |
| AAUAACAAGUGAGAUCCUAACAUGAGGAUCACCCAUGUGCUCGUCUUAUAAAGUACUAUCACGAAAGUGAUAGUACA [Sensor 3, v1 - 54] (puzzle: Sensor v3, turn-off variant 1) | 117 nM | 7.29 nM | 70.6 nM |  |  |  |
| CUCCGACAUGAGGAUCACCCAUGUGAGGAUAUGUAGCCCAGUUGGACAACUCGAGGUAGCAGAAGGCACAUGCC [Eternabot (L2) Solution 64] (Eterna round: R97, puzzle: Exclusion 1) |  |  |  | 57.6 nM | 27 nM |  |

| Sequence | apparent KD of MS2 coat protein [1] | apparent KD of MS2 coat protein [2] | apparent KD of MS2 coat protein [3] | apparent KD of MS2 coat protein (input ligand: FMN 200 uM) | apparent KD of MS2 coat protein (input ligand: none) | apparent KD of MS2 coat protein [4] |
| --- | --- | --- | --- | --- | --- | --- |
| AGUAGUUCAGGAUAUGAUGUUAAGUACAUGAGGAUCACCCAUGUAGGUCCUGGAUUUACAUCAGAAGGGAAUAACU [JR_Ex5_Sub083] (Eterna round: R97, puzzle: Exclusion 5) |  |  |  | 60.4 nM | 23.6 nM |  |
| GUGAUCUAUCAUGGGAUAAACAUGAGGAUCACCCAUGUACACAAGUUUUUUGCUCGUCUUAUAAUAAGAUAGAUCAC [Antenna 3 - Jieux - Sensor, turn-off variant 1] (Eterna round: R97, puzzle: Sensor, turn-off variant 1) |  |  |  | 21 nM | 20.9 nM |  |
| CGCAUACAUGAGGAUCACCCAUGUGAGGAUAUCAUGCUUCGUAGUAAACUACGAAGUGUGAGAAGGCACAUGCG [Omei Ex1 D2] (Eterna round: R97, puzzle: Exclusion 1) |  |  |  | 112 nM | 62.6 nM |  |
| CACCGUUACACAGGAUAUCUUACAUGAGGAUCACCCAUGUAAUAAAUGAGAAUUUCGAAUGUAUUAGAGAAGGGUGGAAUCGGC [Ostracism 67 - Jieux - Exclusion NG 2] (Eterna round: R96, puzzle: Exclusion NG 2) |  |  |  |  |  | 29.8 nM |
| AUACCACGAGGAUAUCGUCUAUAAUACAUGAGGAUCACCCAUGUUAUAUCUGUAAUGUUUCGAGAAGGCGUGUUUU [JR_E5_Sub083] (puzzle: Exclusion 5) |  | 16.6 nM |  |  |  |  |
| AAGAGUGCAGGAUAUACUUGGUAGGGUAAGAUGAGUGAGGGACAUGAGGAUCACCCAUGUAGAAGGGCAGAGAG [JR_Exclu2_Sub057] (puzzle: Exclusion 2) | 33.1 nM | 35.1 nM | 26.7 nM |  |  |  |
| AUGAUGUGAGGAUAUUAGUAGGGUAGCAGAUGACUGCCUAAUAAGAAGGCACAUGAGGAUCACCCAUGUUCACU [Eternabot (L2) Solution 11] (Eterna round: R97, puzzle: Exclusion 4) |  |  |  | 135 nM | 63.5 nM |  |
| AGAUAUUCGGUAGGAUAUCAGAAAGGAAGUGUAUGAGAAGGACCGAGCCGGAAACCGGUACAUGAGGAUCACCCAUGUGGUCCA [PowerStrip EXNG 1.23] (Eterna round: R96, puzzle: Exclusion NG 1) |  |  |  | 20.4 nM | 16.4 nM | 14 nM |
| CGCAUGUGAGGAUAUUAGUAGUAGUCAGAAUAGACUAUUACUGAGAAGGUACAUGAGGAUCACCCAUGUAUCCG [Eli x4 4.21] (Eterna round: R97, puzzle: Exclusion 4) |  |  |  | 28.5 nM | 17.1 nM |  |
| CUGAGCAGACGGAGAUCCAACAUGAGGAUCACCCAUGUCUCAAAAGCUUUUUGCUCGUCUUAUCCUCCUCUGCUCAC [Geesbeleri] (puzzle: Sensor v3, turn-off variant 1) | 11.2 nM | 21.8 nM | 12.5 nM |  |  |  |
| GCCUGCUGGCGAGGAUAUUCUGUGCGGUUCCGGCUCGUGUCUGUUACAUGAGGAUCACCCAUGUGGGAGAAGGUGUCUGUGGCC [Design 100] (Eterna round: R96, puzzle: Exclusion NG 2) |  |  |  | 12.5 nM | 14.7 nM | 10.1 nM |
| AUAUAUAUAGGAUAUACAUGAGGAUCACCCAUGUAAAGUAGCUUGCGUACAGGCAGAUGUAGAAGGAUAUAUAU [Mod of JL 15 - Jieux - Exclusion 3] (Eterna round: R97, puzzle: Exclusion 3) |  |  |  | 29.2 nM | 33.1 nM |  |
| UGCAUGCUAGGAUAUACGGGACAUUAGGGUUCGUUGUGUGGACAUGAGGAUCACCCAUGUAGAAGGAGCGUGCU [Mod of JL-ex2-2.15 mat747 mod] (puzzle: Exclusion 2) |  | 69.3 nM |  |  |  |  |
| GCAGCAUAGUGUAAUAAACACAUACAUGAGGAUCACCCAUGUGAGGAUAUGGACUGGAUUACAGUCCAGAAGGCACAAAGCUGC [Zipper Style 1] (Eterna round: R96, puzzle: Exclusion NG 3) |  |  |  | 18.7 nM | 17.8 nM | 15.9 nM |
| AACAGCAGCUUUUUGCGCAACAUGAGGAUCACCCAUGUUGCAUGAGCAGCGUCGGGAGGUACCGGUUUCGUUUUGUC [Eternabot (L1) Solution 45] (Eterna round: R97, puzzle: Sensor, turn-off variant 1) |  |  |  | 18.7 nM | 18.1 nM |  |
| AGAAAUGCCCAUGGCCGCAAGCUUUUUACUUGUCUUACCACAUGAGGAUCACCCAUGUGACAUGGAAACCUUAUGAU [Sensor v3, turn-off variant 2 (MOD of Oranla v.2)] (puzzle: Sensor v3, turn-off variant 2) | 30.3 nM | 97 nM | 28.1 nM |  |  |  |
